Experimental data as given in PMC7163869.

Target: Chikungunya virus-like particles (strain 37997) (chikungunya virus (strain 37997))
Assay: BLI

Molecule	Kd
Mouse Mxra8 ectodomain 23-296 (from UniProt Q9DBV4 23-296) (domain or fragment)	66.4 nM
Cattle Δmoo Mxra8 ectodomain (domain or fragment) VLLSSGPSGPATSDRSVVSESTVSWAAGARAVLRCQSPRMVWTQDRLHDRQRVVHWDLSGSKAGGPARRLVDMYSTGEQRVYEPRDRGRLLLPPSAFHDGNFSLFIRAVEETDEGLYTCNLHHHYCHLYESLAVSLEVTDDPRAAGAHWDGEKEVLAVERGAPALLTCVNRAHVWTDRHLEEAQQVVHWDRQPPGVPHDRADRLLDLYASGERRAYGPPFLRDRVAVEADAFARGDFSLLIDPVEPADEGTYSCHLHHHYCGLHERRVFHLRVTEPAARPPPPPRDSPGNGSSHSGAPGPGARDPTLTRGRSVINVIVPEGRAHFFQQ	72.3 nM
